Here are results for two molecules from US20110038881A1 (published 2011).

For experiment [1], the target named is HLA-DRB1*0101 (human). As to the kind of experiment: competition.
For experiment [2], the target named is HLA-DRB1*0101 (human). As to the kind of experiment: competition binding.
The target of a further experiment is HLA-DRB1*0301 (human). Briefly: competition binding.
The target of the next experiment is HLA-DRB4*0101 (human). As to the kind of experiment: competition binding.
A further experiment addresses HLA-DRB1*0401 (human). Briefly: competition binding.
The next experiment deals with HLA-DRB1*0701 (human). As to the kind of experiment: competition binding.
The target of a further experiment is HLA-DRB1*1301 (human). Briefly: competition binding.
A further experiment has as its target HLA-DRB1*1101 (human). As to the kind of experiment: competition binding.
Another experiment addresses HLA-DRB1*1501 (human). Briefly: competition binding.
For the next experiment, the target named is HLA-DRB3*0101 (human). Briefly: competition binding.
The target in a further experiment is HLA-DRB5*0101 (human). As to the kind of experiment: competition binding.

For WRFLRGYHQYAYDGK [peptide p21 (residues 107-121 of HLA-A2)], the IC50 – broadly, the concentration needed to halve the response being measured – with HLA-DRB1*0101 [1] turned out to be 1 nM. In other words, the single-digit nanomolar range.
With TQFVRFDSDAASQRM [peptide p7 (residues 31-45 of HLA-A2)], the IC50 was 122 nM with HLA-DRB1*0101 [2]; 164 nM in the experiment with HLA-DRB1*0301; 2180 nM with HLA-DRB4*0101; 354 nM with HLA-DRB1*0401; 786 nM in the experiment with HLA-DRB1*0701; over 100 µM with HLA-DRB1*1301. Besides, the IC50 worked out at 4 µM with HLA-DRB1*1101, 374 nM in the experiment with HLA-DRB1*1501, 456 nM with HLA-DRB3*0101 and 1550 nM with HLA-DRB5*0101.
